In the data set the test system is T1, GST-rCtrA (Ehrlichia chaffeensis), ORF:1c7d897d.
T1 sequence: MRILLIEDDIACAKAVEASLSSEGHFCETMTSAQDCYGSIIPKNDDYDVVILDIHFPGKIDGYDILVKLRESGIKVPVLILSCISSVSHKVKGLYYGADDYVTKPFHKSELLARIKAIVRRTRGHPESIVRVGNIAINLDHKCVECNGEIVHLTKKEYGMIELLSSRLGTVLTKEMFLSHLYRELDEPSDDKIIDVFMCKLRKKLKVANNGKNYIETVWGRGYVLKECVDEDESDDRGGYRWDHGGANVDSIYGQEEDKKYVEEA
As to the kind of experiment: EMSA.

With “ATATAACCTAATAGTGACAAATAAATTAACAATAGTAGAAGTGTCATATAAAAGCAAGTCAGAATATAAATTTTTGTATAAAATATCGGTAACTTTTGTAAGGAAAATTTAATATATTACGTCAGGTAAGTAATAGCAAAAAAACTGGTTAAGTATAGTATCATGTGTAAAGGTGAGAAAAACAGCACTTATAAACTAGTCCCCCCCCCCCCCCTCTTATTGCTACATTCTTTTGCCACTATTTTTATTTACCTGCAGCA (double strand) [p28 promoter]”, the binding result is reported as “no binding”.
